From PMC2443653

Target: rPrP23-231 (full-length mature recombinant prion protein) (mouse, UniProt P04925 23-231)
Assay: fluorescence anisotropy

rPrP23-231 (full-length mature recombinant prion protein), sequence (P04925 23-231): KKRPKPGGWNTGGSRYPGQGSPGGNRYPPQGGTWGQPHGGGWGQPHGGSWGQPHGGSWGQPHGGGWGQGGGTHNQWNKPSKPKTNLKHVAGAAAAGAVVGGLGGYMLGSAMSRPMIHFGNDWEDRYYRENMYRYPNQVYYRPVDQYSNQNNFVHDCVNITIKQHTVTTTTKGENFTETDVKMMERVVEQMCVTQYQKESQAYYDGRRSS

AAACAUGGGUUCCCAUGU (structured_RNA) [opRNA]
binding result: binds
